B1: Histone-lysine N-methyltransferase 2A, residues 1148 to 1194; numbered along this chain, Q03164 (parent)
chain: KGRRSRRCGQCPGCQVPEDCGVCTNCLDKPKFGGRNIKKQCCKMRKC

In the Human Domainome abundance scans (Beltran et al. 2025) one finds abundance fitness data, which are given here for 55 variants.

± gives the uncertainty stated by the source.

Variants of B1 are the subject of the series. Nature of the series: abundance fitness (aPCA) (normalised: wild type 0, dead -1); higher = more abundant; growth selection in yeast, the domain comes from the species named. The settings on record: Homo sapiens.
KGRRSRRCGQCPGCQVPEDCGVCTNCLDKPKFGGRNSKKQCCKMRKC: the abundance fitness turned out to be 0.037 ± 0.084.
Turning to KGRRSRRCGQCPGCQVPEDCGVCTNCLDKPKFGGRNPKKQCCKMRKC, the abundance fitness was -0.554 ± 0.14.
Consider KGRRSRRCGQCPGCQVPEDCGVCTNCLDKPKFGGRNVKKQCCKMRKC, for which the abundance fitness was 0.02 ± 0.078.
For the variant KGRRSRRCGQCPGCQVPEDCGVCTNCLDKPKFGGRNKKKQCCKMRKC, the abundance fitness is -0.166 ± 0.16.
As to KGRRSRRCGQCPGCQVPEDCGVCTNCLDKPKFGGRNCKKQCCKMRKC, the abundance fitness stood at 0.095 ± 0.097.
Take KGRRSRRCGQCPGCQVPEDCGVCTNCLDKPKFGGRNEKKQCCKMRKC: the abundance fitness came to 0.274 ± 0.12.
As for KGRRSRRCGQCPGCQVPEDCGVCTNCLDKPKFGGRNLKKQCCKMRKC, the abundance fitness is -0.159 ± 0.086.
KGRRSRRCGQCPGCQVPEDCGVCTNCLDKPKFGGRNRKKQCCKMRKC: the abundance fitness was -0.421 ± 0.082.
The same measure for KGRRSRRCGQCPGCQVPEDCGVCTNCLDKPKFGGRNYKKQCCKMRKC: -0.265 ± 0.22; for KGRRSRRCGQCPGCQVPEDCGVCTNCLDKPKFGGRNNKKQCCKMRKC: 0.093 ± 0.17; for KGRRSRRCGQCPGCQVPEDCGVCTNCLDKPKFGGRNGKKQCCKMRKC: -0.056 ± 0.072.
The same measure for KGRRSRRCGQCPGCQVPEDCGVCTNCLDKPKFGGRNMKKQCCKMRKC: 0.002 ± 0.13; for KGRRSRRCGQCPGCQVPEDCGVCTNCLDKPKFGGRNQKKQCCKMRKC: -0.024 ± 0.15.
On to KGRRSRRCGQCPGCQVPEDCGVCTNCLDKPKFGGRNTKKQCCKMRKC, for which the abundance fitness was -0.153 ± 0.13.
Next, KGRRSRRCGQCPGCQVPEDCGVCTNCLDKPKFGGRNIKHQCCKMRKC: -0.11 ± 0.17; KGRRSRRCGQCPGCQVPEDCGVCTNCLDKPKFGGRNIKCQCCKMRKC: -0.2 ± 0.11; KGRRSRRCGQCPGCQVPEDCGVCTNCLDKPKFGGRNIKEQCCKMRKC: 0.156 ± 0.13.
On to KGRRSRRCGQCPGCQVPEDCGVCTNCLDKPKFGGRNIKAQCCKMRKC, for which the abundance fitness is -0.074 ± 0.1.
Consider KGRRSRRCGQCPGCQVPEDCGVCTNCLDKPKFGGRNIKLQCCKMRKC, for which the abundance fitness is -0.086 ± 0.091.
For the variant KGRRSRRCGQCPGCQVPEDCGVCTNCLDKPKFGGRNIKMQCCKMRKC, the abundance fitness was -0.124 ± 0.12.
Turning to KGRRSRRCGQCPGCQVPEDCGVCTNCLDKPKFGGRNIKGQCCKMRKC, the abundance fitness is -0.004 ± 0.076.
On to KGRRSRRCGQCPGCQVPEDCGVCTNCLDKPKFGGRNIKDQCCKMRKC, for which the abundance fitness is 0.101 ± 0.14.
The same measure for KGRRSRRCGQCPGCQVPEDCGVCTNCLDKPKFGGRNIKNQCCKMRKC: -0.35 ± 0.17; for KGRRSRRCGQCPGCQVPEDCGVCTNCLDKPKFGGRNIKIQCCKMRKC: -0.161 ± 0.15.
As for KGRRSRRCGQCPGCQVPEDCGVCTNCLDKPKWGGRNIKKQCCKMRKC, the abundance fitness is -0.337 ± 0.14.
KGRRSRRCGQCPGCQVPEDCGVCTNCLDKPKYGGRNIKKQCCKMRKC: the abundance fitness was -0.068 ± 0.087.
Regarding KGRRSRRCGQCPGCQVPEDCGVCTNCLDKPKFAGRNIKKQCCKMRKC, the abundance fitness was -0.394 ± 0.089.
Turning to KGRRSRRCGQCPGCQVPEDCGVCTNCLDKPKFCGRNIKKQCCKMRKC, the abundance fitness was -0.677 ± 0.16.
KGRRSRRCGQCPGCQVPEDCGVCTNCLDKPKFKGRNIKKQCCKMRKC: the abundance fitness was -0.936 ± 0.16.
For KGRRSRRCGQCPGCQVPEDCGVCTNCLDKPKFRGRNIKKQCCKMRKC, the abundance fitness was -0.783 ± 0.093.
For KGRRSRRCGQCPGCQVPEDCGVCTNCLDKPKFYGRNIKKQCCKMRKC, the abundance fitness is -0.613 ± 0.24.
Regarding KGRRSRRCGQCPGCQVPEDCGVCTNCLDKPKFMGRNIKKQCCKMRKC, the abundance fitness is -0.494 ± 0.11.
For the variant KGRRSRRCGQCPGCQVPEDCGVCTNCLDKPKFFGRNIKKQCCKMRKC, the abundance fitness is -1.04 ± 0.23.
The same measure for KGRRSRRCGQCPGCQVPEDCGVCTNCLDKPKFLGRNIKKQCCKMRKC: -0.631 ± 0.099; for KGRRSRRCGQCPGCQVPEDCGVCTNCLDKPKFNGRNIKKQCCKMRKC: -0.289 ± 0.16.
The same measure for KGRRSRRCGQCPGCQVPEDCGVCTNCLDKPKFQGRNIKKQCCKMRKC: -0.535 ± 0.13.
KGRRSRRCGQCPGCQVPEDCGVCTNCLDKPKFTGRNIKKQCCKMRKC: the abundance fitness is -0.526 ± 0.12.
For KGRRSRRCGQCPGCQVPEDCGVCTNCLDKPKFWGRNIKKQCCKMRKC, the abundance fitness was -0.853 ± 0.15.
On to KGRRSRRCGQCPGCQVPEDCGVCTNCLDKPKFPGRNIKKQCCKMRKC, for which the abundance fitness is -0.707 ± 0.14.
For the variant KGRRSRRCGQCPGCQVPEDCGVCTNCLDKPKFVGRNIKKQCCKMRKC, the abundance fitness is -0.418 ± 0.085.
Next, KGRRSRRCGQCPGCQVPEDCGVCTNCLDKPKFGVRNIKKQCCKMRKC: -0.453 ± 0.084.
As to KGRRSRRCGQCPGCQVPEDCGVCTNCLDKPKFGTRNIKKQCCKMRKC, the abundance fitness is -0.316 ± 0.1.
Take KGRRSRRCGQCPGCQVPEDCGVCTNCLDKPKFGIRNIKKQCCKMRKC: the abundance fitness is -0.787 ± 0.2.
Regarding KGRRSRRCGQCPGCQVPEDCGVCTNCLDKPKFGERNIKKQCCKMRKC, the abundance fitness was -0.133 ± 0.098.
For KGRRSRRCGQCPGCQVPEDCGVCTNCLDKPKFGRRNIKKQCCKMRKC, the abundance fitness was -0.52 ± 0.082.
For the variant KGRRSRRCGQCPGCQVPEDCGVCTNCLDKPKFGSRNIKKQCCKMRKC, the abundance fitness is -0.288 ± 0.088.
KGRRSRRCGQCPGCQVPEDCGVCTNCLDKPKFGARNIKKQCCKMRKC: the abundance fitness was -0.463 ± 0.089.
The same measure for KGRRSRRCGQCPGCQVPEDCGVCTNCLDKPKFGDRNIKKQCCKMRKC: -0.236 ± 0.1; for KGRRSRRCGQCPGCQVPEDCGVCTNCLDKPKFGFRNIKKQCCKMRKC: -0.409 ± 0.13; for KGRRSRRCGQCPGCQVPEDCGVCTNCLDKPKFGYRNIKKQCCKMRKC: -0.774 ± 0.19.
For the variant KGRRSRRCGQCPGCQVPEDCGVCTNCLDKPKFGCRNIKKQCCKMRKC, the abundance fitness is -0.32 ± 0.11.
As for KGRRSRRCGQCPGCQVPEDCGVCTNCLDKPKFGKRNIKKQCCKMRKC, the abundance fitness is -0.478 ± 0.15.
With KGRRSRRCGQCPGCQVPEDCGVCTNCLDKPKFGPRNIKKQCCKMRKC, the abundance fitness was -0.448 ± 0.11.
Next, KGRRSRRCGQCPGCQVPEDCGVCTNCLDKPKFGHRNIKKQCCKMRKC: -1.07 ± 0.25; KGRRSRRCGQCPGCQVPEDCGVCTNCLDKPKFGWRNIKKQCCKMRKC: -0.906 ± 0.11.
